Measured values published in US20240132548A1 (Janssen / Centocor, published 2024).

Experiments:
Experiment in all cases: BLI (Octet), biotinylated mAb on streptavidin sensors, culture supernatant
[1] = biological target: T1, RSV181179 (I152M + K226M + D486N) (respiratory syncytial virus, subgroup B …, UniProt O36634 26-109; P13843 137-540)
T1 construct: Measured in crude culture supernatant, no furin co-transfection
T1 chain 1: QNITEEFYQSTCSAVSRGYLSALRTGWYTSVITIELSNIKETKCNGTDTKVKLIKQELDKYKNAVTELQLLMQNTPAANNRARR
T1 chain 2: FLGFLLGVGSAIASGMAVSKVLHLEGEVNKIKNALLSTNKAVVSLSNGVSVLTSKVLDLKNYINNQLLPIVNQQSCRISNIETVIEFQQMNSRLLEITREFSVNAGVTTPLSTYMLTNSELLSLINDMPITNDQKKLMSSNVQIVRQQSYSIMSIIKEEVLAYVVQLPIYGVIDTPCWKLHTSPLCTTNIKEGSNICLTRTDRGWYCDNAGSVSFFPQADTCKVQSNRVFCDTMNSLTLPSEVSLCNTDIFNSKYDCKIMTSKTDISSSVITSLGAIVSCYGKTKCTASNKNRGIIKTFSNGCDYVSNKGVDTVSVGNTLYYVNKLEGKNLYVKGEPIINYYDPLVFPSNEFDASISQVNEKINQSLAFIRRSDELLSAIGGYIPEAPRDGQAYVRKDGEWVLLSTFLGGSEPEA
Experimental: (§1) Quantitative Octet (BioLayer Interferometry) was used for measuring protein concentration in the supernatants at day of harvest and after 7 or 30 days storage at 4° C. CR9501 (an antibody specifically recognizing pre-fusion RSV F protein, which comprises the variable regions of the antibodies 58C5 as described in WO2012/006596) and CR9506 (recognizing pre-fusion and post-fusion RSV F protein and comprising a heavy chain variable region comprising SEQ ID NO: 21, and a light chain variable region comprising SEQ ID NO: 22) were biotinylated by standard protocols and immobilized on Streptavidin biosensors (ForteBio, Portsmouth, UK).
(§2) Afterwards, the coated biosensors were blocked in mock cell culture supernatant. A quantitative experiment was performed as follows: temperature 30° C., shaking speed 1000 rpm, time of the assay 300 sec. The concentration of the protein was calculated using a standard curve. The standard curve was prepared for each coated antibody CR9501 and CR9506 using the pre-fusion RSV FA protein (SEQ ID NO: 19; described previously in WO17174568) diluted in mock medium. […] The data analysis was done using the ForteBio Data Analysis 10.0.1.6 software (ForteBio).

[2] = biological target: T2, RSV180910 (RSV FB signal peptide, C-tag) (respiratory syncytial virus, subgroup B …, UniProt O36634 26-109; P13843 137-540)
T2 construct: Same mature protein as RSV180916, expressed with the RSV B signal peptide; measured in culture supernatant, furin co-transfected
T2 chain 1: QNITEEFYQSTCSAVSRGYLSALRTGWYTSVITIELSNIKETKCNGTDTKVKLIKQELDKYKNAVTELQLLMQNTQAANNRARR
T2 chain 2: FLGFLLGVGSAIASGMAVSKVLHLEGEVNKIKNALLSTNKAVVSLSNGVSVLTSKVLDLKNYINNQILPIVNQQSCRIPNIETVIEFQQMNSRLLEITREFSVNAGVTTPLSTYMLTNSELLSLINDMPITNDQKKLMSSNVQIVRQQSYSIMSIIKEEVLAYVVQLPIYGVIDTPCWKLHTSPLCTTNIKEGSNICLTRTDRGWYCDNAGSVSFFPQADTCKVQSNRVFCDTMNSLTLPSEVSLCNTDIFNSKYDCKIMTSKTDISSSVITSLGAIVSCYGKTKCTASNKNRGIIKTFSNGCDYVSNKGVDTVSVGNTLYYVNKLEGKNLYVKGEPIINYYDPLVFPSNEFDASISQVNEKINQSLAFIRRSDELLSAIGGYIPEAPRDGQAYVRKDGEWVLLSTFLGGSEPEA
Experimental: as §1, §2

[3] = biological target: T3, RSV181182 (I152M + K226M + D486N + S215P + P101Q + D489Y + T357R + N371Y) (respiratory syncytial virus, subgroup B …, UniProt O36634 26-109; P13843 137-540)
T3 chain 1: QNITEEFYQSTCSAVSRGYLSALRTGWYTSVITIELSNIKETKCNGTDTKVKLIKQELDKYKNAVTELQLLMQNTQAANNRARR
T3 chain 2: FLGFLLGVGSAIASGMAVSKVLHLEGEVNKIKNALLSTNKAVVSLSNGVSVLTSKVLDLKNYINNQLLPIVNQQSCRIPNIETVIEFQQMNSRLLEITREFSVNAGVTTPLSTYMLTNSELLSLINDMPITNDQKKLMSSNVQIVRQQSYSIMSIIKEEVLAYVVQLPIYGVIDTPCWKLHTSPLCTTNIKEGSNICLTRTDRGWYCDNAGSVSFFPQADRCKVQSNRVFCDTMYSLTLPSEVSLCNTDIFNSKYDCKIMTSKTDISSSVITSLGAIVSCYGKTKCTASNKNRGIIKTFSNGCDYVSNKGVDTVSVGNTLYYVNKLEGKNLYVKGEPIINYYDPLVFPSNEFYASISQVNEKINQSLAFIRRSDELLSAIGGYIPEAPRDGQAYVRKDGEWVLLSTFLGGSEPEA
Experimental: as §1, §2

[4] = biological target: T4, RSV180915 (I152M + K226M + D486N + S215P) (respiratory syncytial virus, subgroup B …, UniProt O36634 26-109; P13843 137-540)
T4 chain 1: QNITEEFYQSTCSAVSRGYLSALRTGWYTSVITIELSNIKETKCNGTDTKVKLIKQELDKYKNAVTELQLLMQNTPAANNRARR
T4 chain 2: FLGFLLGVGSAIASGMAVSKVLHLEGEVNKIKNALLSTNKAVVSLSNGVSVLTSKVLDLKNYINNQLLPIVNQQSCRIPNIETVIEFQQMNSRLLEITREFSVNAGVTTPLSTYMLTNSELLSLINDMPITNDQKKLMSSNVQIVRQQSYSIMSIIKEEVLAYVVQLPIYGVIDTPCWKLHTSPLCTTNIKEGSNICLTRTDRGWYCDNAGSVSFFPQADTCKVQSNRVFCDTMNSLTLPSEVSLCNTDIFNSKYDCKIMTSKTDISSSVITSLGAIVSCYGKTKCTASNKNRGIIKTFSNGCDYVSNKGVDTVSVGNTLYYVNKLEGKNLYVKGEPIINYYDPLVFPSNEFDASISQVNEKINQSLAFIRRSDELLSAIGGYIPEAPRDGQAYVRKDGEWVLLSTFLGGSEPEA
Experimental: as §1, §2

[5] = biological target: T5, RSV180916 (I152M + K226M + D486N + S215P + L203I + P101Q; C-tag, RSV A signal peptide) (respiratory syncytial virus, subgroup B …, UniProt O36634 26-109; P13843 137-540)
T5 chain 1: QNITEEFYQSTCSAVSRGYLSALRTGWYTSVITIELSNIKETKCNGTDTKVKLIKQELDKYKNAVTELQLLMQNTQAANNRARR
T5 chain 2: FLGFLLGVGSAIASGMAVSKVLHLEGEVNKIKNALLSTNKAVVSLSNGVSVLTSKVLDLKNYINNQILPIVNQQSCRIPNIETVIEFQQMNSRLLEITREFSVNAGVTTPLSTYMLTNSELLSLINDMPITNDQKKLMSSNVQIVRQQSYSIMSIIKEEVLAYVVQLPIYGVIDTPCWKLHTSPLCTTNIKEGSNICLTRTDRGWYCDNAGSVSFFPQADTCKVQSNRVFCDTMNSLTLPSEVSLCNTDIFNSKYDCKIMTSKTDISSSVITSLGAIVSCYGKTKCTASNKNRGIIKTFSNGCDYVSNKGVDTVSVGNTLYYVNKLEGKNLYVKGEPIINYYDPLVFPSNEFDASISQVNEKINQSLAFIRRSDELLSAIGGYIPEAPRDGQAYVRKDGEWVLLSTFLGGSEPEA
Experimental: as §1, §2

Measured: binding result

B1: CR9506 (antibody, human IgG1, kappa, V domains shown)
VH: EVQLVQSGAEVKKPGSSVKVSCKASGGTFSRSLITWVRQAPGQGLEWMGEISLVFGSAKNAQKFQGRVTITADESTSTAHMEMISLKHEDTAVYYCAAHQYGSGTHNNFWDESELRFDLWGQGTLVTVSS
VL: DIVMTQSPSSLSASVGDRVTIACRASQSIGTYLNWYQQKPGKAPKLLIYAASSLQSGVPSRFSGSGSGTHFTLAISSLQAEDFATYSCQQSYTIPYTFGQGTKLEIKR
notes: Biotinylated for Octet; coated and also used HRP-labelled as detection antibody in the ELISA
binds: all assays above
